Earlier results on 1 substance are cited in PMC5264612.

Broadly, the Kd is the free concentration of one partner at which half of the binding sites on the other are occupied at equilibrium, for simple one-to-one binding.

One data set addresses MftA (UniProt P9WJ80).
The next data set deals with MftC (UniProt P9WJ78).
UniProt P9WJ78, sequence (P9WJ78 whole entry): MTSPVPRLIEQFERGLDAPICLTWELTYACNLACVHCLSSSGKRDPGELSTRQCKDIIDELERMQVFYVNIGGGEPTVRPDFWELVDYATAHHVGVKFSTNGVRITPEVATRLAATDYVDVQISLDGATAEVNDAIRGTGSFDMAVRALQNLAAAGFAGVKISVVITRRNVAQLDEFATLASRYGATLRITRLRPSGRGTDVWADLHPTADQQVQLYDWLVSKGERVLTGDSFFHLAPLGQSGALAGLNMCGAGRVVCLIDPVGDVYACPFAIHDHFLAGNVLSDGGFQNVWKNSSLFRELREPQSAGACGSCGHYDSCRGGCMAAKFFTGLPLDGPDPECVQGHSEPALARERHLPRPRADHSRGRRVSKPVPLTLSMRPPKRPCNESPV

UniProt P9WJ80, sequence (P9WJ80 whole entry): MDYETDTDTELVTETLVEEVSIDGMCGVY

On to MftB (from UniProt A0PM48), for which the equilibrium dissociation constant (Kd) was 120 nM in the data set with MftA and 2000 nM with MftC.
